Assay results taken from US20260035478A1 (TENEOBIO, published 2026).
Residue numbers refer to the chain shown, from its start.

B1: anti-MSLN single domain antibody clone 394940 (VHH)
VHH: EVQLLESGGGLVQPGGSLRLSCAASGFSFSSYAMSWVRQAPGKGLEWVSSISSSGDSTYYADSVKGRFTISRDNSKNTLYLQMNSLRAEDTAVYYCARPPSYYDFLSDPDYWGQGTLVTVSS
notes: Human VH single domain ('heavy chain antibody variable domain')
B2: anti-MSLN single domain antibody clone 392774 (VHH)
VHH: B1 VHH with S28T, S35T, S50A, S52T, S53G, Y80F, N84S, A88G, R98K
notes: Human VH single domain
B3: anti-MSLN single domain antibody clone 394955 (VHH)
VHH: B1 VHH with S28T, R98K
notes: Human VH single domain; tested as antibody-containing supernatant
B4: anti-MSLN single domain antibody clone 394908 (VHH)
VHH: B1 VHH with V12I, S50N, S53G, R98K
notes: Human VH single domain
B5: anti-MSLN single domain antibody clone 394971 (VHH)
VHH: B1 VHH with V12I, S50Y, S53G, R98K
notes: as for B3
B6: anti-MSLN single domain antibody clone 394925 (VHH)
VHH: B1 VHH with V12I, S50A, R98K
notes: as for B3
B7: anti-MSLN single domain antibody clone 394966 (VHH)
VHH: B1 VHH with V12G, S28T, A33P, S50A, S53G, R98K
notes: as for B3
B8: anti-MSLN single domain antibody clone 394991 (VHH)
VHH: B1 VHH with S28T, S35N, D56G
notes: as for B3
B9: anti-MSLN single domain antibody clone 394921 (VHH)
VHH: B1 VHH with S28T, S50N, S53G, R98K
notes: as for B3
B10: anti-MSLN single domain antibody clone 394982 (VHH)
VHH: B1 VHH with S28T, S30T, R98K
notes: as for B3
B11: anti-MSLN single domain antibody clone 394905 (VHH)
VHH: B1 VHH with V12G, S28T, A33P, R98K
notes: as for B3
B12: anti-MSLN single domain antibody clone 394985 (VHH)
VHH: B1 VHH with S28T, S50A, S52T, S53G, Y80F, N84S, A88G, R98K
notes: as for B3
B13: anti-MSLN single domain antibody clone 394930 (VHH)
VHH: B1 VHH with V12I
notes: as for B3
B14: anti-MSLN single domain antibody clone 394972 (VHH)
VHH: B1 VHH with S28T, S50A, R98K
notes: as for B3
B15: anti-MSLN single domain antibody clone 394912 (VHH)
VHH: B1 VHH with V12I, S57G, R98K
notes: as for B3
B16: anti-MSLN single domain antibody clone 394910 (VHH)
VHH: B1 VHH with R98K
notes: as for B3
B17: anti-MSLN single domain antibody clone 394907 (VHH)
VHH: B1 VHH with V12I, S28T, R98K
notes: as for B3
B18: anti-MSLN single domain antibody clone 394979 (VHH)
VHH: EVQLLESGGGVVQPGRSLRLSCAASGFTFSSYDMHWVRQAPGKGLEWVAVISYDGSKKYSADSVKGRFTISRDNSKNTLYLQMNSLRAEDTAVYYCAKPPSYYDFLSDPDYWGQGTLVTVSS
notes: as for B3
B19: anti-MSLN single domain antibody clone 394947 (VHH)
VHH: B1 VHH with V12I, N84K, R98K
notes: as for B3
B20: anti-MSLN single domain antibody clone 394901 (VHH)
VHH: B1 VHH with V12I, R98K
notes: as for B3

These binders were tested against T1, human mesothelin (MSLN) on cells (human, UniProt Q13421 296-598) (assay: flow cytometry dose curve, HeLa cells).
T1 construct: whole, on cells; One molecule is used for human MSLN on transfected CHO cells and on HeLa cells; the cell line is named under assay; also called huMSLN
Protocol: (§1) Cell-binding dose curves for example anti-MSLN single domain antibodies described herein were generated using CHO cells expressing human MSLN (FIG. 1A), Hela cells (FIG. 1B), and CHO-OFFtgt cells (FIG. 1C). The single domain antibodies were tested at a starting concentration of 150 nM, followed by 3-fold serial dilutions for an 8-point dose curve. All washes and dilutions of cells, antibodies, and reagents were performed using flow buffer (1× phosphate buffered saline (PBS), 1% bovine serum albumin (BSA), and 0.1% NaN₃). Cells were pelleted and resuspended at 1×10⁶ cells/mL in flow buffer. Then, 50 μL cells were combined with 50 μL of test antibody and incubated 30 minutes at 4° C., followed by two wash steps with flow buffer. Cells were then resuspended in 50 μL PE-conjugated secondary diluted to 1.25 μg/mL (Southern Biotech #2042-09) and incubated for 20 minutes at 4° C. After two wash steps, cells were resuspended in flow buffer and analyzed using a BD Celesta system. PE mean fluorescence intensity was plotted as a fold over background (cells incubated with secondary detection antibody only).
To determine cell binding EC50 values for example anti-MSLN single domain antibodies of the present disclosure, cell binding dose curves were generated using Hela cells and CHO cells expressing human MSLN. […]

T1 sequence (Q13421 other isoform, or with tags, fused parts or gaps limits assumed): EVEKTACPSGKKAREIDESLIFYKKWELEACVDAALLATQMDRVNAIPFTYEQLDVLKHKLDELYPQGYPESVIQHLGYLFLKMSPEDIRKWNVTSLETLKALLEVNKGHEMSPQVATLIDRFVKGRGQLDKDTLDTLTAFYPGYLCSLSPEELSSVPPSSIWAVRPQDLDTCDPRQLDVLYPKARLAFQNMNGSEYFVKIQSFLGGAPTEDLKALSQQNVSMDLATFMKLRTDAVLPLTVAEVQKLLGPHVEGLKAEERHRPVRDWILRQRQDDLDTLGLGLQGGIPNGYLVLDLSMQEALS

Row | EC50 [nM] | Binder
1 | 2.6 | B1
2 | 15.6 | B2

These binders were tested against T1, human mesothelin (MSLN) on cells (assay: flow cytometry, supernatant diluted 1:5, CHO cells expressing human MSLN).
Protocol: Pelleted CHO cells were resuspended in flow buffer (1× phosphate buffered saline (PBS), 1% bovine serum albumin (BSA), and 0.1% NaN₃) at 1.25×10⁶ cells/mL. Antibody containing supernatants were diluted 1:5 in flow buffer, and 40 μL cells plus 10 μL diluted antibody supernatant were incubated for 30 minutes at 4° C. Cells were washed with flow buffer and resuspended in 50 μL phycoerythrin (PE)-conjugated secondary antibody (Southern Biotech #2042-09) diluted in flow buffer to 1.25 μg/mL and incubated for 20 minutes at 4° C. After two wash steps, cells were resuspended in flow buffer and analyzed using a Guava easyCyte 8HT system. Table E1 summarizes the target binding activity of the anti-MSLN single domain antibodies as fold over background mean fluorescence intensity (MFI) signal.

Row | fold over background mean fluorescence intensity (MFI) [fold over background] | Binder
3 | 294 | B3
4 | 508 | B4
5 | 373 | B5
6 | 277 | B6
7 | 356 | B7
8 | 281 | B8
9 | 381 | B9
10 | 405 | B10
11 | 227 | B11
12 | 378 | B12
13 | 540 | B13
14 | 477 | B14
15 | 404 | B15
16 | 313 | B16
17 | 429 | B17
18 | 662 | B1
19 | 160 | B18
20 | 285 | B19
21 | 400 | B20
22 | 246 | B2

The binders below were run against T1, human mesothelin (MSLN) on cells (assay: flow cytometry dose curve, CHO cells expressing human MSLN).
Protocol: as §1
To determine cell binding EC50 values for example anti-MSLN single domain antibodies of the present disclosure, cell binding dose curves were generated using Hela cells and CHO cells expressing human MSLN. The single domain antibodies were tested at a starting dose of 150 nM, followed by 3-fold serial dilutions for an 8-point dose curve as described in Example 2. The transformed data were plotted as an xy-graph using the non-linear regression curve fit (available in GraphPad Prism 8.4.3) to obtain the EC50 values (nM), which are summarized in Table E2.

Row | EC50 [nM] | Binder
23 | 71.1 | B4
24 | 6.5 | B1
25 | 7.2 | B2

The binders below were run against T2, recombinant human MSLN (R&D Systems, #3265-MS) (human, UniProt Q13421 296-580, limits assumed) (assay: BLI (Octet HTX), antibody on AHC sensors, antigen in solution, 1:1 model).
T2 construct: Bought reagent; It was loaded on Ni-NTA sensors for the binning, so it apparently carries a His tag; also called antigen
Protocol: Table E3 summarizes affinity and epitope bin information for example anti-MSLN single domain antibodies of the present disclosure. The affinity of each single domain antibody to recombinant human MSLN (R&D Systems, #3265-MS) was measured by Bio-layer interferometry (BLI) using an Octet HTX. AHC (Anti-hIgG Fc Capture) sensors were used to immobilize test antibody at 5 μg/mL. After baseline readings, sensors were dipped into antigen solutions (starting at 500 nM followed by a 7-point, 2-fold dilution series). Association and dissociation were measured for 180 and 240 seconds respectively. Data were analyzed with Octet Data Analysis v11.0 HT (ForteBio) using a standard 1:1 binding model. Epitope bins for the single domain antibodies were determined by an in-tandem competition BLI binding experiment using an Octet HTX. The antigen (5 μg/mL) was loaded on the sensor Ni-NTA sensor followed by a baseline in kinetic buffer. The antigen-coated sensor was then dipped into a saturating concentration Antibody 1. A second baseline was now set for 300 seconds. Then the antigen-antibody 1 complex was dipped into Antibody 2 solution for 180 seconds and then allowed to dissociate.

T2 sequence (Q13421 other isoform, or with tags, fused parts or gaps limits assumed): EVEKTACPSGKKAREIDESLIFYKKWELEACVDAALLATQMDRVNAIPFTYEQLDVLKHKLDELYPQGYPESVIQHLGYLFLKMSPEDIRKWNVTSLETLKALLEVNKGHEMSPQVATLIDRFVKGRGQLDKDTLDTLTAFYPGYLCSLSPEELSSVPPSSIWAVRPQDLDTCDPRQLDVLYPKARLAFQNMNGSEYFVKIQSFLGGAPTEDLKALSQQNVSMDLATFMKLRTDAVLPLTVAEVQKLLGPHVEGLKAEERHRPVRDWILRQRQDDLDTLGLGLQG

Row | Kd [nM] | Binder
26 | 64.6 | B4
27 | 21 | B1
28 | 185 | B2
